Consider one substance from patent US20190167709A1.

The assay concerns the target CD20 (B-cell surface antigen CD20 on human Burkitt's B-cell non-Hodgkin's lymphoma Raji cells) (human) (UniProt P11836). Briefly: cell-based or functional assay.
Chain of UniProt P11836 (P11836 whole entry): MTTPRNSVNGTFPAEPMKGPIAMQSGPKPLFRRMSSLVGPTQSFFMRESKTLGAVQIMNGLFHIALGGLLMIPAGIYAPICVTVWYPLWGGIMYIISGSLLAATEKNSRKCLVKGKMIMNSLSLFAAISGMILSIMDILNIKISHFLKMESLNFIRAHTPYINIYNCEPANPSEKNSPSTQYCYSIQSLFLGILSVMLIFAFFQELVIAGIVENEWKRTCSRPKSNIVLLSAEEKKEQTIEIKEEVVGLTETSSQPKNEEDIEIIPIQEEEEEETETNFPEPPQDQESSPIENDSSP

For the substance “Fab′-MORF1 conjugate (Fab′ fragment of the mouse anti-human CD20 IgG2a mAb 1F5 tethered to the 3′ end of morpholino MORF1 via a thioether bond)”, the apoptosis induction, fold over untreated, Raji B-cells; 5 µM Fab′-MORF1 + P-MORF2/v3 (fold compared to untreated) was 7; the apoptosis of Raji B-cells, P-MORF2/v10 against P-MORF2/v3 (0.5 µM Fab′, MORF1:MORF2 = 1:1 or 1:10) (fold against P-MORF2/v3) was 2; the apoptotic cells, annexin V/PI staining, Raji B-cells; 1 µM Fab′-MORF1 and equimolar P-MORF2/v3 amounted to 40%; the apoptotic cells, fold over untreated, annexin V/PI staining, Raji B-cells; 1 µM Fab′-MORF1 and equimolar P-MORF2/v3 (fold compared to untreated) is greater than 4. The substance also gave an apoptotic index (%), Annexin V/PI binding assay, Raji B-cells, 48 h; consecutive Fab′-MORF1 then Copolymer-MORF2, 0.5 µM, valence = 10, MORF1:MORF2 1:1 of 50% and an apoptotic index (%), Annexin V/PI binding assay, Raji B-cells, 48 h; consecutive Fab′-MORF1 then Copolymer-MORF2, 1 µM, valence = 3, MORF1:MORF2 1:1 of 37%.
